B1: Hairpin Ribozyme (parent)
chain: GUCCUCUUUCACGUGCGCGUGAAAGAGAGAAGUGAACCAGAGAAACACACGUUGUGGUAUAUUACCUGGUA

Variants of: B1
Experiment: self-cleavage, relative activity (ratio to wild type); higher = more cleavage; co-transcriptional

Variant	self-cleavage
U58A A61G	0.27
U58A A61C	0.0874
U58A A61U	0.216
U60G U62A	0.203
G57U G69C	0.0914
G57U G69U	0.215
U63C C65U	0.131
U63C C65A	0.106
G68C U70C	0.339
U58C U62C	0.369
U58C U62G	0.242
U70A A71C	1.21
U58A U60C	0.715
U62G U63A	0.0488
U62G U63G	0.191
U62G U63C	0.243
U58A U70G	0.493
U58A U70A	0.588
U58A U70C	0.728
U60C A71C	1.66
U60C A71G	1.08
U60C A71U	1.18
A61U C66U	0.176
A61U C66A	0.122
U60C G68A	0.26

Variant	self-cleavage
U60C G68U	0.204
U60A A61G	0.216
G57U U70A	0.266
U60C U62G	0.155
G69U U70C	0.304
U60G U63G	0.0801
U60G U63A	0.173
U62C C66A	0.13
U67A G68C	0.157
U67A G68U	0.128
U67A G68A	0.115
A61C U67C	0.107
A61C U67A	0.252
U67G G68C	0.177
U67C A71U	0.224
U62A C66A	0.12
G57C U67A	0.257
U63A G69C	0.0966
G69A A71C	0.912
G69A A71U	0.152
U58C U70G	0.759
U58C U70A	0.897
A61G U70C	0.146
A64U G68A	0.173
U58G G68U	0.19

Variant	self-cleavage
G68U A71G	0.253
G68U A71C	0.329
A61U C65G	0.193
A61U C65U	0.188
A59C C65G	0.246
A59C C65U	0.23
A59C C65A	0.0683
A64U U67A	0.206
A61G G69A	0.16
U70C A71U	1.64
U70C A71C	1.79
U63A U70A	0.0404
C65G U67C	0.183
A59U C66U	0.191
C66U U67C	0.326
C66G U67G	0.211
A59U U70C	0.199
A59U U70G	0.159
U60A U63G	0.136
U63G A64G	0.134
U58G U63A	0.149
U60G G68U	0.296
G57U G68U	0.196
U58A U62G	0.296
U58A U67C	0.118

Variant	self-cleavage
U58A U67A	0.273
A61U G68C	0.191
A61U G68A	0.219
U60A U70G	0.553
U58C U63A	0.212
U58C U63G	0.27
A59G C66A	0.228
A64C C65A	0.186
A64C C65U	0.223
U62A U70A	0.143
G57C U70C	0.216
G57C U70A	0.184
U62A A64U	0.197
U62A A64G	0.093
U60C U67C	0.329
U60C U67G	0.207
C65G G69A	0.138
U60G U67A	0.144
A64C U67C	0.151
U58G U62C	0.187
U58G U62A	0.232
U58A G69C	0.246
U58A G69A	0.201
U62G A71U	0.367
U60A A71U	0.616

Variant	self-cleavage
U60A A71C	1.24
A64G G68A	0.226
A61G	0.183
A61C	0.214
A61U	0.213
U62G C66U	0.12
A64U A71G	0.311
G69C A71G	0.316
G69C A71C	0.609
A61C C65A	0.165
A64U U70G	0.155
U58C U60A	0.845
U58C U60C	1.19
U62C G68C	0.223
U62C G68A	0.2
U60A U67G	0.187
U60A U67C	0.155
A61C A64C	0.0878
C65G G68C	0.151
C66A G69A	0.268
G57U C65U	0.25
G57U C65A	0.271
G68A A71U	0.15
C65A G68A	0.378
U60G A71U	0.395

Variant	self-cleavage
U63A A64U	0.198
U60A G68U	0.189
U60A G68C	0.236
U67A A71C	0.381
U63A C65A	0.219
U58A G68U	0.134
U58A G68A	0.272
A59G G68U	0.235
A59G G68A	0.135
C65U U67G	0.229
C65U U67C	0.209
U63C G69A	0.216
A64C U70C	0.0963
U58G C65G	0.146
A59U A71C	0.153
U62C A71C	0.595
U67G A71G	0.208
A59G U62C	0.201
G57U A61U	0.203
U63A C66G	0.0954
U63A C66A	0.118
A61U U62C	0.197
A61U U62G	0.0473
A61C G69A	0.159
A61C G69U	0.145

Variant	self-cleavage
C65A C66A	0.15
A64C G69C	0.129
U63C A64U	0.185
C65A U67G	0.197
U58A C66A	0.18
A59U A61G	0.166
A59G U67C	0.128
G57U U63G	0.291
G57U U63C	0.146
A61G U62C	0.0932
U60C A64U	0.183
U60C A64C	0.201
U62C G69C	0.0631
A59G A61G	0.082
A59G A61U	0.141
C66U G69A	0.216
C66U G69C	0.198
C66U G69U	0.187
A59U G68C	0.0787
C66A U67G	0.091
U60G C65U	0.183
A59G U60G	0.311
A59G U60A	0.164
A59G U60C	0.238
U60G A61C	0.315

Variant	self-cleavage
C65U G68U	0.327
C65U G68C	0.108
A64U G69C	0.259
U67C G69A	0.178
U63G C65U	0.11
A59C A71G	0.119
C65G C66U	0.429
C65G C66G	0.178
A64G A71C	0.76
A64G A71G	0.554
A64G A71U	0.287
U63A G68A	0.276
U63A G68C	0.225
U63A G68U	0.225
U63C	0.186
U63A	0.188
U63G	0.171
A59U U67A	0.141
G69A	0.407
G69U	0.243
G69C	0.289
G57U C66A	0.219
G57U C66U	0.244
U60G U70G	0.514
U62C U67A	0.166

Variant	self-cleavage
U60C G69C	0.326
G57U U62G	0.176
U60C C66U	0.451
U60C C66A	0.31
A59G U70C	0.192
A59G U70G	0.161
A64G U67G	0.159
A64G U67A	0.0458
A64G U67C	0.122
U60C A61G	0.228
G68U G69U	0.183
G68U G69A	0.3
U67A U70G	0.186
U67A U70A	0.237
G57C U63C	0.272
U58C C66A	0.201
U58C C66U	0.546
U70A	0.926
U70C	0.924
U70G	0.844
C65U G69U	0.279
U67G G69A	0.134
A64C A71C	0.28
U62G U67A	0.25
U63C A71G	0.328

Variant	self-cleavage
U63C A71U	0.191
U62A G68A	0.187
U62A G68C	0.156
G68C A71C	0.436
G68C A71G	0.233
U58C A61C	0.145
U62A A71U	0.169
U62A A71C	0.325
U60C U63C	0.314
U63C U70A	0.189
G57U U58A	0.309
U63C G68A	0.192
U63C G68C	0.133
A61G A64U	0.202
U58C U67A	0.231
A59C C66G	0.253
U58G U67A	0.181
U58G U67C	0.0792
A61G A71G	0.168
A61G A71C	0.308
A61U A64U	0.3
C65A G69A	0.169
C65U C66U	0.185
C65U C66A	0.172
U58C G68U	0.169

Variant	self-cleavage
U58C G68A	0.301
C66A G68C	0.161
C66A G68U	0.105
A61U U70A	0.175
U58G U60C	0.731
U62G A64C	0.2
U62G A64U	0.0808
U62G A64G	0.166
U62G G68U	0.257
U58C A64G	0.502
U58C A64C	0.178
U62A G69U	0.04
U62A G69A	0.176
U62A G69C	0.113
C66U A71C	0.757
U58G A61U	0.0693
A59C G68A	0.124
A59C G68U	0.138
U60G C66A	0.0537
U60G C66U	0.361
G68A U70A	0.156
A64C G68A	0.18
A64C G68U	0.26
U62G C65A	0.157
U62G C65G	0.223

Variant	self-cleavage
U63G G68C	0.169
A59G U63A	0.262
A59G U63G	0.0571
U67A G69A	0.116
G69A U70C	0.387
G69A U70G	0.325
G57U U67G	0.152
A59U C65U	0.13
G57C U62G	0.155
U60A C66G	0.191
U58G U70A	0.849
U62C U70C	0.255
U62C U70A	0.194
G57U A71U	0.223
U63G U67C	0.149
A61G C66A	0.246
U60A C65A	0.807
U62C A64U	0.187
U62C A64C	0.149
U62C U63G	0.228
C65U A71U	0.441

Reference: the RNAGym collection of RNA variant scans (doi:10.7554/elife.80360)
